Experimental data as given in publication PMC5487486.

What was measured:
[1] = biological target: TaFUSCA3 N-terminal region (1st to 60th amino acids) (Triticum aestivum); assay: two-hybrid; Gal4 system (pGADT7 and pGBKT7), yeast strain Y187, read out by growth and β-galactosidase (LacZ) activity, three replicates
[2] = biological target: TaSPA (Triticum aestivum); assay: as above
TaSPA (Triticum aestivum), sequence (Q7X9A8 whole entry): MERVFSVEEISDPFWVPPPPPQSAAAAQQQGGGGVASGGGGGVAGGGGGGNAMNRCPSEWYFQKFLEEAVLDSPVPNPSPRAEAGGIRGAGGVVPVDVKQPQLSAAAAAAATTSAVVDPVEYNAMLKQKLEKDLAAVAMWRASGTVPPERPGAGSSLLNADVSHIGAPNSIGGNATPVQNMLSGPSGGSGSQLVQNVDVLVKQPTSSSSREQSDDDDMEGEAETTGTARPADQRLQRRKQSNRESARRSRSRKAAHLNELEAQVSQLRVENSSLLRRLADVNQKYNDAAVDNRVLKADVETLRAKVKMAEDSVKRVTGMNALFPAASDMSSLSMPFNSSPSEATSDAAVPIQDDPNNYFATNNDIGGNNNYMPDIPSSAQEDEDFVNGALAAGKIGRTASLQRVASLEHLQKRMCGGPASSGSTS

| Substance | fold β-galactosidase activity over the B3 domain with SPA [1] | fold β-galactosidase activity over AD-FUSCA3* with BD-SPA [2] |
| --- | --- | --- |
| TaSPA (from UniProt Q7X9A8 1-425) (natural protein) | 4 fold |  |
| TaFUSCA3 (natural protein) |  | 2 fold |
